We go through 2 substances from patent publication US10562935B2, “Stapled peptides and uses thereof” (London Health Sciences Centre Research Inc., priority 2015, dated 2020).

Bridges are numbered along the chain shown (N, C = ends).

Series [1] in a line: Circular dichroism (CD) spectroscopy of HABD2 peptides in Milli-Q water (Example 1). The series is classed as physicochemical. The note with it: for [θ]222/[θ]208 ratio of ellipticities / fH fraction helicity / Molar ellipticity [θ]192 / Molar ellipticity [θ]208 / Molar ellipticity [θ]222: 0.5 mM in Milli-Q water; for fH fraction helicity: equations 1-3; for α-helical character by CD (in words): Milli-Q water; for Molar ellipticity [θ]192: λ = 192 nm; for Molar ellipticity [θ]208: λ = 208 nm; for Molar ellipticity [θ]222: λ = 222 nm. The text has this: In addition, a large mean residue ellipticity indicates greater α-helical character. […] This was predicted to be the case, as there is a lack of contributing residues that might form a hydrophobic core, thereby helping to stabilize the secondary structure of the linear peptide. For this reason, bridges were introduced into the peptides. […] The differences in α-helicity induced by the bridges placed at different points within each peptide may be due to the differences in their primary sequences. Specifically, two amino acids (at the i and i+4 position) have to be replaced in order to form the lactam bridge. In compound 133, leucine was replaced at both the i and i+4 position; while in compound 136, glutamine was replaced at the i position and aspartic acid was replaced at i+4. Leucine and glutamine are proposed to be helix-stabilizing residues.
A larger portion of the RHAMM protein was used as the reference for α-helical character of the truncated peptides. 7 kDa RHAMM (SEQ ID NO: 1) is a mini protein that is composed of 62 amino acids, which was derived from the C-terminus of the full-length RHAMM sequence. It contains both HABDs, and is predicted to have almost complete α-helix shape, similar to that of native full-length RHAMM.
A peptide's α-helicity can be quantified using equations 1-3: fH=[([θ]obs222−[θ]c)/([θ]max222−[θ]c)] (Equation 1) [θ]c=2220+53T (Equation 2) [θ]max222=(−44000+250T)(1−k/N) (Equation 3) where fH is the ratio of the average number of helical hydrogen bonds divided by the total number of hydrogen bonds that can be found in a peptide, T is the temperature in degrees Celsius, N is the number of residues in the peptide and k is a constant of ellipticity when 100% of the structure is α-helical (3 for carboxyamidated peptides).
Milli-Q water was chosen as the solvent in which all peptides would be dissolved for CD spectroscopy, as it is a UV invisible solvent, which is a requirement of the analytical technique, and it represents RHAMM's natural environment in the body. Luo and Baldwin [18] stated that when peptides are taken out of their native protein sequence, they usually show little to no helical formation in water alone. For this reason, TFE/H2O solutions are commonly used in studies to observe the α-helix characteristics, and may improve the helical nature of the peptides observed here. However, a helix-stabilizing solvent, such as TFE, would not be as contextually relevant, as there are no solvent stabilizing effects in the body. Thus use of TFE would tend to produce skewed results and not be representative of the peptide's natural behavior.

For series [2], the system named is RHAMM-overexpressing (LR21) cells. Description: Cell migration assay (Boyden chamber, Chemicon ECM510). The series is classed as cell-based. Particulars: 10 ng/mL peptide; 20 hours; compared to 30% serum control. On the procedure:
Compounds 132, 133, 150-152, 156-161, 265-269, 275, 277, and 278 were evaluated for their ability to inhibit cell migration. Cell migration assays were performed using Chemicon Assay Kits (ECM510 (Migration); Billerica, Mass., USA) according to the manufacturer's protocol. Briefly, sub-confluent cultures of RHAMM-overexpressing (LR21) cells were serum starved overnight. 7.5×10^4 cells were then plated in the upper chamber of a Boyden chamber. either in the presence or absence of 10 ng/mL of peptide. 30% fetal bovine serum in DMEM was used as the chemo-attractant in the lower chamber. The number of cells that had crossed the membrane after 20 hours was assessed using the CYQUANT GR Dye and lysis buffer solution provided in the kit. Fluorescence was measured with a fluorescent plate reader using a 480/520 nm filter set.
Values are the mean and SDM of n=3 replicates. *p<0.05, **p<0.01. All statistics compare to 30% serum control. In FIGS. 41-43, where bars are labeled with two compound numbers (“133/150” and “135/152”) this means that the data were pooled for the indicated compounds, i.e., for the non-acetylated and acetylated versions of the indicated peptides.

Series [3] shares this test system. The series can be described thus: Cell invasion assay (Boyden chamber with MATRIGEL, Chemicon ECM555). The class given is cell-based. The note with it: 10 ng/mL peptide; 20 hours; compared to 30% serum control. On the procedure:
Compounds 132, 133, 135, 150-153, 156, 265-269, and 275-278 were evaluated for their ability to inhibit cellular invasion. Invasion assays were performed using Chemicon Assay Kits ECM555 (Invasion); Billerica, Mass., USA) according to the manufacturer's protocol. Invasion assays are performed in an identical manner as the migration assays described above in Example 5, except that cells are required to invade through a layer of extracellular matrix (MATRIGEL) coating the filter that separates the upper and lower Boyden chambers. Briefly, sub-confluent cultures of RHAMM-overexpressing (LR21) cells were serum starved overnight before plating 7.5×10^4 cells in the upper chamber of a Boyden chamber either in the presence or absence of 10 ng/mL of peptide. 30% fetal bovine serum in DMEM was used as the chemo-attractant in the lower chamber. The number of cells that had crossed the membrane after 20 hours was assessed using the CYQUANT® GR Dye and lysis buffer solution provided in the kit. Fluorescence was measured with a fluorescent plate reader using 480/520 nm filter set.
Values the mean and SDM of n=3 replicates. *p<0.05, **p<0.01, ***p<0.001 All statistics compared to 30% serum control. In FIG. 49, where bars are labeled with two compound numbers (“152/135”) this means that the data were pooled for the indicated compound, i.e., for the non-acetylated and acetylated versions of the indicated peptide.

Series [4] has as its system NF-κB. Description: Inflammation assay: NF-κB inducible SEAP reporter in RAW-Blue macrophages stimulated with PAM3CSK4. The note with it: 10 ng/mL peptide with 200 ng/mL PAM3CSK4; 18 hours; compared to +PAM3. The series is classed as cell-based, murine. On the procedure: Compounds 132, 133, 135, 150, 152, 157-161, 265-269, 275, 277, and 278 were evaluated for their ability to inhibit inflammation. To determine the effect of the peptides on inflammation, commercially available murine RAW 264.7 macrophages carrying a secreted embryonic alkaline phosphatase (SEAP) reporter that is inducible by NF-κB (RAW-Blue; InvivoGen, San Diego, Calif., USA) were used. Cells were grown to 80% confluence in DMEM containing 4.5 g/L glucose, 10% heat-inactivated fetal bovine serum, 2 mM L-glutamine, 50 μg/mL penicillin/streptomycin, 100 μg/mL Normocin (InvivoGen) at 37° C. in 5% CO2. For peptide screening experiments, cells were scraped in growth medium, counted, and plated to flat-bottom 96-well plates at a density of 5×10^4 cells/well either in the presence or absence (control) of 200 ng/mL TLR1/TLR2 agonist PAM3CSK4 (InvivoGen). Peptides were added in 6 replicate wells at a dose of 10 ng/mL in the presence of PAM3CSK4. After 18 hours of stimulation, SEAP concentrations (indicating NF-κB activity) were measured in the supernatants collected from the RAW-Blue cells using QUANTI-BLUE reagent (InvivoGen). After 20 minutes of incubation at 37° C., SEAP levels were determined using spectrophotometry at a wavelength of 630 nm.
Values are the mean and SDM of n=3 replicates. *p<0.05 and ***p<0.001 compared to +PAM3. In FIGS. 44 and 45, where bars are labeled with two compound numbers (“133/150” and “135/152”) this means that the data were pooled for the indicated compounds, i.e., for the non-acetylated and acetylated versions of the indicated peptides.

Consider “H-(cyclo-4,8)-VSK[ERSQK]VKRKQN-NH2 (H-VSKERSQKVKRKQN-NH2; lactam 4-8; SMILES CC(C)[C@H](N)C(=O)N[C@@H](CO)C(=O)N[C@@H](CCCCN)C(=O)N[C@H]1CCC(=O)NCCCC[C@@H](C(=O)N[C@H](C(=O)N[C@@H](CCCCN)C(=O)N[C@@H](CCCNC(=N)N)C(=O)N[C@@H](CCCCN)C(=O)N[C@@H](CCC(N)=O)C(=O)N[C@@H](CC(N)=O)C(N)=O)C(C)C)NC(=O)[C@H](CCC(N)=O)NC(=O)[C@H](CO)NC(=O)[C@H](CCCNC(=N)N)NC1=O) [Compound 133]”, for which, in series [1], the “[θ]222/[θ]208 ratio of ellipticities” value is 0.45, the fH fraction helicity is on record as 0.17, the “α-helical character by CD (in words)” value is “did not seem to stabilize” and the “Molar ellipticity [θ]192” value is 1733.35 deg cm^2 dmol^−1 residue^−1. Besides, in series [1], the “Molar ellipticity [θ]208” value is −5010.81 deg cm^2 dmol^−1 residue^−1 and the “Molar ellipticity [θ]222” value is on record as −2260.92 deg cm^2 dmol^−1 residue^−1. Further, in series [2], the “inhibition of cell migration (in words)” value is “significantly inhibit cell migration”. Further, the “inhibition of cellular invasion (in words)” value in series [3] is listed as “significantly inhibited cellular invasion”.

On to “H-(cyclo-6,10)-VSKLR[EQLVK]RKQN-NH2 (H-VSKLREQLVKRKQN-NH2; lactam 6-10; SMILES CC(C)C[C@H](NC(=O)[C@H](CCCCN)NC(=O)[C@H](CO)NC(=O)[C@@H](N)C(C)C)C(=O)N[C@@H](CCCNC(=N)N)C(=O)N[C@H]1CCC(=O)NCCCC[C@@H](C(=O)N[C@@H](CCCNC(=N)N)C(=O)N[C@@H](CCCCN)C(=O)N[C@@H](CCC(N)=O)C(=O)N[C@@H](CC(N)=O)C(N)=O)NC(=O)[C@H](C(C)C)NC(=O)[C@H](CC(C)C)NC(=O)[C@H](CCC(N)=O)NC1=O) [Compound 135]”, for which, in series [1], the “[θ]222/[θ]208 ratio of ellipticities” value is listed as 0.55, the fH fraction helicity was found to be 0.22, the “α-helical character by CD (in words)” value is listed as “increase in α-helix structure” and the “Molar ellipticity [θ]192” value is 1245.85 deg cm^2 dmol^−1 residue^−1. Also, in series [1], the “Molar ellipticity [θ]208” value is given as −7906.16 deg cm^2 dmol^−1 residue^−1 and the “Molar ellipticity [θ]222” value is reported as −4400.73 deg cm^2 dmol^−1 residue^−1. For the same substance, the “inhibition of cell migration (in words)” value in series [2] is given as “significantly inhibit cell migration”. Moreover, the “inhibition of inflammation (SEAP / NF-κB activity, in words)” value in series [4] was “significantly inhibited inflammation”. The “inhibition of cellular invasion (in words)” value in series [3] was “significantly inhibited cellular invasion”.
